# System: RcnR (Salmonella enterica serovar Typhimurium SL1344 (100% sequence identity to E. coli RcnR))
# Experiment: fluorescence anisotropy
# Settings: Ni(II), 1:1 NiII:RcnR tetramer; 10 nM DNA, 60 mM NaCl, 240 mM KCl, 10 mM HEPES pH 7.5, 25 C, anaerobic, Chelex-treated N2-purged buffers; apo-RcnR Kd 1.5e-7 M is from earlier work (ref 39)
substance,measurement,value
rcnRA operator-promoter,Kd,3.09 µM
